The test system of series [1] is HepG2 cells. In words: apoB and apolipoprotein expression and secretion, immunoprecipitation and Western blot. Format: cell-based, human. The procedure:
During experiments in which HepG2 cells were treated with human recombinant resistin (Calbiochem, UK) the media was changed to 1% FBS-containing DMEM. […] In separate experiments, cells were treated with the fatty acid, oleate (100 μM) (Sigma, ON) for 24 hours, with or without human resistin (50 ng/mL) for 24 hours. In other experiments, cells were treated with the 10 μM lactacystin (Cayman Chemical, Ann Arbor, Mich.) for 24 hours to assess intracellular proteosome-dependent apoB protein degradation.
(§1) Horseradish peroxidase-conjugated antibodies (BioRad, Hercules, Calif.) were used as secondary antibodies.
All of the experiments to follow were performed three times and representative results are shown. […] Immunoprecipitation on cell lysates and media, followed by Western blots to detect the cellular expression and secretion of human apoB protein were then performed. The constitutively expressed cellular proteins, beta-actin and albumin were used as internal immunoblot controls to confirm equal protein loading in the apoB immunoblots of cell lysates and media, respectively. […] Treatment with 25 ng/mL resistin further stimulated apoB secretion by approximately 250% compared with untreated cells (FIG. 1A).
(Immunoblotting shows a protein as a band on a membrane.)

Series [2] concerns HepG2 cells. In words: FPLC lipoprotein profile of HepG2 cell media. To be noted: 50 ng/mL, 24 hour. Format: cell-based, human. The procedure: (§2) Lipids from HepG2 cell extracts were quantified by gas chromatography (GC) as described in Sahoo et al. (J. Lipid Res. 45:1122-1131). Briefly, cell extracts were incubated with phospholipase C (Sigma, ON) to remove polar head groups, then extracted in the presence of internal standard by the method of Folch et al. (J Biol Chem 226:497-509). Extracted lipids were passed through a sodium sulfate column to remove aqueous contaminants, and derivatized with Sylon BFT (Supelco, ON) to cap reactive hydroxyl and carboxyl groups. Derivatized lipids were dissolved in hexane and injected onto a Zebron ZB-5 column (Phenomenex, Torrance, Calif.) in an Agilent 6890 GC instrument. Lipoprotein Profiles. HepG2 media from 6-10 cm plates was collected and concentrated using an Amicon Centriprep concentrator 50 K and lipoprotein classes separated by fast protein liquid chromatography (FPLC) on a Superose 6 10/30 gel filtration column (Amersham, UK) followed by inline post-column reaction with either Infinity Triglyceride or Infinity Cholesterol reagent (Thermo Scientific, West Palm Beach, Fla.) and measurement of absorbance @ 500 nm.
The characteristics of the apoB-containing lipoprotein particles produced as a result of treatment of human hepatocytes with human resistin was determined. […]

Series [3] concerns HepG2 cells. In words: gas chromatography of hepatocyte lipids. The class given is cell-based, human. As to conditions: 50 ng/mL, 24 hours. The procedure:
as §2
To quantify the hepatocyte lipid changes induced by human resistin, gas chromatography (GC) analyses of lipids extracted from harvested hepatocytes either untreated or treated with human resistin (50 ng/mL) for 24 hours was performed.

In series [4] the test system is HepG2 cells. The series can be described thus: insulin signaling pathway protein expression, Western blot. Format: cell-based, human. To be noted: 50 ng/mL, 24 hours.
From the text: as §1
Another important regulator of hepatocyte apoB/VLDL assembly and stability is the intracellular insulin signaling pathway.

Series [5] relates to primary mouse hepatocytes from PCSK9 knockout mice. The series can be described thus: LDL receptor protein in PCSK9 knockout mouse hepatocytes. Format: cell-based. To be noted: 50 ng/mL, 24 hours. The protocol:
Animal ethics approval was received for the mouse protocols to follow. Primary mouse hepatocytes from PCSK9 knockout mice (C57Bl/6 background) or their wildtype littermates were isolated by perfusing the liver via the hepatic portal vein with a 5 mM EGTA in Leffert's Buffer (10 mM Hepes; 3 mM KCl, 0.13 M NaCl, 1 mM NaH2PO4, 10 mM D-glucose) followed by a 0.3 mg/ml collagenase in 0.0279% CaCl2. Cells were then filtered through a 70 uM nylon strainer and centrifuged at 760 rpm for 5 min. The cells were then passed through a CHRM gradient (Invitrogen, NC). Viability of cells ranged from 80 to 95%. […] Mouse LDL receptor and PCSK9 protein in cell lysates were measured via immunoblotting, as described above, using the following primary antibodies: mouse LDL receptor (abcam, MA), mouse PCSK9 (abcam, MA) and mouse GAPDH (Cell Signaling, MA). […]
To then more directly quantify the role of PCSK9 in the resistin mediated reduction in hepatocyte LDL receptor levels, hepatocytes isolated and cultured from wild-type mice were treated with resistin, and compared to resistin-treated hepatocytes from PCSK9 knockout mice.

This is an account of results in patent US20130252987A1, “METHOD OF REGULATING PLASMA LIPOPROTEINS” (MCMASTER UNIVERSITY, priority 2010, published 2013).

B1: human resistin: recombinant lyophilized purified human resistin (Calbiochem); cysteine-rich cytokine, single 12 kDa band (protein)
chain: KTLCSMEEAINERIQEVAGSLIFRAISSIGLECQSVTSRGDLATCPRGFAVTGCTCGSACGSWDVRAETTCHCQCAGMDWTGARCCRVQP
On to B1, for which the “increase of hepatic apoB cellular protein expression and secretion versus control, untreated HepG2 cells” value in series [1] (10 ng/mL resistin, 24 hours) was about 100%. Also, the “stimulation of apoB secretion compared with untreated cells” value in series [1] (25 ng/mL resistin, 24 hours) was “approximately 250%”. For the same molecule, the “effect on the stimulatory effect of oleate on hepatic cellular apoB expression and secretion” value in series [1] (50 ng/mL resistin added to 100 μM oleate, 24 hours) is given as “doubled”. Moreover, in series [1] (50 ng/mL resistin added to lactacystin 10 μM, 24 hours), the “apoB expression or secretion on addition to lactacystin” value is reported as “did not further increase”. Moreover, in series [1] (50 ng/mL resistin, 24 hours), the “increase in cellular apoB protein expression versus untreated cells” value was “approximately 3500%” and the “increase in secreted apoB versus untreated cells” value was 1000%. The “apoB secretion above untreated HepG2 cells” value in series [1] (50 ng/mL resistin, after 48 hours, no restimulation) is 100%. Besides, in series [1] (50 ng/mL resistin, time course), the “earliest time of increase in apoB protein secretion into HepG2 cell media” value is 4 h and the “time of maximal cumulative effect on apoB protein expression in the media” value came out at 24 h. The “increase in secretion of apoB protein by HepG2 cells” value in series [1] (50 ng/mL, 24 hour) is on record as “approximately 8 fold”. Further, in series [1] (50 ng/mL, versus untreated), the “apoCI or CIII protein expression” value is “no difference” and the “expression of secreted apoE” value is reported as “increase”. For the same molecule, in series [1] (100 ng/mL resistin, 24 hours), the “cellular apoB expression and secretion versus that produced by 50 ng/mL resistin” value is reported as “reduced cellular apoB expression markedly”. Further, in series [2], the “increase in secreted VLDL triglycerides and cholesterol relative to control untreated cells” value is reported as 8-9 fold; the “lipid contents of the secreted LDL or HDL fractions” value is “virtually no change”. In series [3], the “increase in cholesteryl ester content” value amounted to 18%, the “increase in free cholesterol content” value worked out at 3% and the “increase in triglyceride content” value was determined as 24%. In series [4], the “decrease in expression of IRS-2, ERK, phosphorylated ERK, Akt and serine and threonine phosphorylated Akt” value is on record as 20-30%. In addition, the “decline in LDL receptor expression compared to untreated hepatocytes” value in series [5] stood at 15%.
